In article PMC3517971 one finds stoichiometry N data, which are given here for one substance.

Assay [1] concerns the target SpoIIE(590–827), PP2C phosphatase domain of SpoIIE from Bacillus subtilis (B. subtilis) (UniProt P37475). Kind of assay: crystal structure; crystals from 14–15% polyethylene glycol 400, 0.1 M Tris–HCl (pH 8.5), 0.2 M sodium citrate, 0–50 mM MnCl2; space group P6_(1)22, two molecules in the asymmetric unit; 2.6 Å (PDB 3T91).
For assay [2] the target is unchanged. The assay is described as follows: crystal structure; crystals from 0.9–1.2 M sodium acetate, 0.1 M Hepes pH 7.5; protein pre-incubated with 1–2 mM MnCl2 for 30 min; space group P6_(1)22; 2.76 Å (PDB 3T9Q).

With “SpoIIE(590–827), PP2C phosphatase domain of SpoIIE from Bacillus subtilis (from UniProt P37475 590-827) (domain or fragment)”, the stoichiometry N in assay [1] and in assay [2] was 2 in each case.
